{"source": "patent US20140147887A1", "about": "“NOVEL 12 ALPHA-HYDROXYSTEROID DEHYDROGENASES, PRODUCTION AND USE THEREOF” (PharmaZell GmbH, priority 2006, published 2014)", "test": "Standard 12α-HSDH activity determination (NADP+-dependent oxidation of cholic acid, absorption at 340 nm)", "format": "biochemical", "parameters": "unit not given here", "conditions": "cell lysate", "protocol": "The activity is defined as follows: 1 U of the enzyme corresponds to the amount of enzyme which catalyzes the reaction of 1 μmol/min of a 5 mM cholic acid solution in potassium phosphate buffer (50 mM, pH 8.0) at room temperature (i.e. about 20° C.-23° C.).\nFor the activity determination, 790 μl of potassium phosphate buffer (50 mM, pH 8.0), […] of cholic acid (50 mM in potassium phosphate buffer (50 mM, pH 8.0)) and 10 μl of enzyme solution to be measured were mixed in a cuvette. 100 μl of NADP^+ (2.5 mM) was added at the start of the reaction and the increase in the absorption at 340 nm was determined photometrically. The gradient over 30 s was determined at RT. Determination of the activity took place according to the Lambert-Beer's law.", "key": {"[1]": {"conditions": "E. coli BL21 (DE3), expression period 4 h"}, "[2]": {"conditions": "E. coli BL21 (DE3), expression period 22 h"}, "[3]": {"conditions": "E. coli Rosetta (DE3), expression period 4 h"}, "[4]": {"conditions": "E. coli Rosetta (DE3), expression period 22 h"}}, "data": [{"molecule": "HSDH_long: long version of 12α-HSDH from Clostridium sp. group P strain 48-50, SEQ ID NO: 2, recombinantly expressed in E. coli (protein, listed as Clostridium sp.) MDFIDFKEMGRMGIFDGKVAIITGGGKAKSIGYGIAVAYAKEGANLVLTGRNEQKLLDAKEELERLYGIKVLPLAVDVTPSDESEDRVKEAVQKVIAEFGRIDVLINNAQASASGIPLSMQTKDHFDLGIYSGLYATFYYMRECYPYLKETQGSVINFASGAGLFGNVGQCSYAAAKEGIRGLSRVAATEWGKDNINVNVVCPLAMTAQLENFKLSYPEAYEKNLRGVPMGRFGDPELDIGRVCVQLGSPDFKYMSGETLTLEGGMGQRP", "values": [{"measurement": "Activity [of culture medium]", "setting": "[1]", "result": 12700}, {"measurement": "Activity [of culture medium]", "setting": "[2]", "result": 36800}, {"measurement": "Activity [of culture medium]", "setting": "[3]", "result": 3100}, {"measurement": "Activity [of culture medium]", "setting": "[4]", "result": 19500}]}, {"molecule": "HSDH_short: N-terminally truncated short version of 12α-HSDH from Clostridium sp. group P strain 48-50, SEQ ID NO: 4 (protein) IFDGKVAIITGGGKAKSIGYGIAVAYAKEGANLVLTGRNEQKLLDAKEELERLYGIKVLPLAVDVTPSDESEDRVKEAVQKVIAEFGRIDVLINNAQASASGIPLSMQTKDHFDLGIYSGLYATFYYMRECYPYLKETQGSVINFASGAGLFGNVGQCSYAAAKEGIRGLSRVAATEWGKDNINVNVVCPLAMTAQLENFKLSYPEAYEKNLRGVPMGRFGDPELDIGRVCVQLGSPDFKYMSGETLTLEGGMGQRP", "values": [{"measurement": "Activity [of culture medium]", "setting": "[1]", "result": 12800}, {"measurement": "Activity [of culture medium]", "setting": "[2]", "result": 33000}, {"measurement": "Activity [of culture medium]", "setting": "[3]", "result": 3400}, {"measurement": "Activity [of culture medium]", "setting": "[4]", "result": 24300}]}]}
